According to PMC5993284, “Peptide inhibitors of the anaphase promoting-complex that cause sensitivity to microtubule poison” (PLoS ONE, 2018):
Ends that are not written are not given here. * marks the point of attachment. Biotin = O=C1N[C@H]2[C@H](CS[C@H]2CCCCC(=O)*)N1

Columns and labels:
[1] = biological target: Anaphase Promoting-Complex/Cyclosome (APC/C) isolated through Cdc16-TAP and kept on IgG beads (S. cerevisiae | S. cerevisiae (endogenous in yeast)) (UniProt P09798)
[2] = biological target: Anaphase Promoting-Complex/Cyclosome (APC/C) isolated through Cdc16-TAP and kept on IgG beads (S. cerevisiae | S. cerevisiae (endogenous in yeast)) (UniProt P09798); remark: listed apart in the source
Cdc20 = assay: Avidin-bead pull-down of full-length Cdc20 made by IVT/T; type: binding, Saccharomyces cerevisiae; settings: biotinylated form; Avidin beads; rabbit reticulocyte lysate; Western blot; n = 3
Procedure: To determine if Tyc1 could interact directly with the APC/C a pure N-terminal biotinylated form of Tyc1 was incubated with purified APC/C. […] Thus, like Mad2-binding motif peptides, unexpectedly Tyc1 protein binds to and inhibits APC/C when present in excess leading to a microtubule poison sensitivity phenotype in vivo.
Supplementary file pone.0198930.s008.tif: S8 Fig Tyc1 can pull-down recombinant Cdc20 synthesized by IVT/T. A) A Western blot displaying the detection of Cdc20 protein made by IVT/T (left), where the epitope tag is at the N-terminus of the ORF. The IVT/T reaction yields a series of protein products that display full-length and lower molecular weights, potentially the result of pre-mature translation termination. An Avidin-bead pull-down using a biotinylated-Tyc1 (Bio-Tyc1) is shown (right). […] B) An Avidin-bead pull-down using a biotinylated-Tyc1-mut1 (Bio-Tyc1-mut1) (middle) and biotinylated-Tyc1-mut2 (Bio-Tyc1-mut2) are shown (right). […] (TIF) Click here for additional data file.

[3] = biological target: Anaphase Promoting-Complex/Cyclosome (APC/C) isolated through Cdc16-TAP and kept on IgG beads (S. cerevisiae | S. cerevisiae (endogenous in yeast)) (UniProt P09798); remark: listed apart in the source
APC/C [4] = assay: APC/C activity promoted by mutant Cdc20 alleles (Pds1 remaining); type: biochemical, Saccharomyces cerevisiae
Procedure: (§1) The production of Cdc20 or Cdh1 was prepared by IVT/T reactions, where 16 μL of rabbit reticulocyte lysate, 20 μM L-methionine, 0.4 μg of plasmid DNA, and a volume of nuclease-free ddH2O for a total volume of 20 μL. This freshly synthesized Cdc20 or Cdh1 protein was used directly in all APC/C assays after a 1-hour synthesis reaction at room temperature. The APC/C was purified for enzyme assays from 1 mL of TAP-tagged Cdc16 yeast extract (SCSY51) where extract was mixed with 50 μL 50:50 slurry magnetic beads (Invitrogen, Norway) for 2 hours at 4 °C. After incubation, the beads were washed with 3 mL APC/C wash buffer (200 mM of HEPES, 150 mM of NaCl and 10% (v/v) of glycerol). APC/C bound to IgG magnetic beads was used directly in the enzyme assays.
(§2) APC/C assays were performed by adding the reaction contents in following order: 4.3 μL of QAH buffer, 20 μL of rabbit reticulocyte lysate containing Cdc20 or Cdh1 with or without an additional volume of recombinant checkpoint protein(s) or inhibitor peptides, 2.4 μL ubiquitin aldehyde (Boston Biochem, USA), APC/C, 16 μL pre-charged E1/E2/ATP/ubiquitin mix, and 13.3 μL of ^35S-Pds1 with QAH buffer (20 mM HEPES at pH 8.0, 100 mM NaCl, and 1 mM MgCl2). The E1/E2/ATP/ubiquitin mix were pre-charged by mixing 1 μL of E1 (Boston Biochem, USA), 1 μL of E2 (Boston Biochem, USA), 14.4 μL of ATP, 14.4 μL of […] (Boston Biochem, USA), and 17.2 μL of QAH buffer and incubated for 15 minutes at room temperature. Approximately 15 μL of samples were taken out at each time point, and the reaction was stopped by the addition of 2x protein sample buffer (125 mM Tris-HCl pH 6.8, 4% SDS, 20% glycerol, and 0.002% bromophenol blue, with 10% (final v/v) 2-mercaptoethanol added in fresh directly before use).
For APC/C activity assays dried-gels were exposed on a phosphor screen cassette to detect radio-labeled protein. The phosphor screen was scanned by a Typhoon phosphor-imager (GE Healthcare Bio-Sciences, USA), and radio-labeled protein bands in gels were quantified by employing the ImageQuant software (GE Healthcare Bio-Sciences, USA) according to the manufacturer’s protocols. Data were expressed as mean ± standard deviation, and was analyzed using Student’s t-test. Graphs were created using Kaliedograph 4.0 (Synergy Software, USA) and estimates of best-fit curves of a 4-parameter Hill equation were generated to obtain estimates for the median inhibitory concentrations (IC50) and Hill coefficients (Hc) using IgorPro 6.01 (Wavemetrics, USA).
By sequence alignment and amino acid homology alone, the budding yeast KILR-motif may be defined as 201-RILQ-204 (Fig 1A). However, the next residue, Tyrosine Y205 had previously been isolated in a genetic screen for spindle checkpoint by-pass alleles of Cdc20 [21], indicating this Y205 residue may be a target of the spindle checkpoint inhibition, and thus might also be a functional KILR-motif residue that contributes to APC/C activation. To clarify this possibility, we took the initial step to characterize several of the previously isolated spindle checkpoint by-pass mutant alleles of Cdc20 [21], and also Cdc20 mutants in the two highly conserved residues within the Mad2-binding motif, the aspartic acid at D197 of unknown function and the highly conserved Leucine L203 within the KILR-motif based on sequence alignment and homology. […]

APC/C [5] = assay: APC/C activity promoted by mutant Cdc20 alleles in the presence of Mad2 (Pds1 remaining); type: biochemical, Saccharomyces cerevisiae; settings: 5.0 μM Mad2, n = 3
Procedure: as §1, §2
For inhibitor titration and time-course experiments, recombinant Bub3, Mad2, Mad3, and the Mad3-Bub3 complex were expressed and purified as previously described. Inhibitory peptides were synthesized by standard procedures and purified to 99% purity by HPLC (Kelowna International Scientific Inc., Taiwan). For inhibition of APC/C the co-factor Cdc20 or Cdh1 was made fresh by IVT/T, and pure recombinant checkpoint proteins or inhibitor peptides were added to the IVT/T mixture and incubated for an additional hour at room temperature. In titrations, a dilution series of the checkpoint protein(s) were made before incubation with the Cdc20 co-factor. […]
Our first goal was to measure the ability of the mutant alleles to promote APC/C activity in vitro. To ensure any observed change in APC/C activity reflected a change in function, and not a change in the amount of Cdc20 co-factor protein produced by IVT/T, the amounts of Cdc20 protein produced by IVT/T was measured, and no significant difference was observed (S4 Table). […]

Sequence of Anaphase Promoting-Complex/Cyclosome (APC/C) isolated through Cdc16-TAP and kept on IgG beads (S. cerevisiae | S. cerevisiae (endogenous in yeast)) (P09798 whole entry, looked up, one chain of several): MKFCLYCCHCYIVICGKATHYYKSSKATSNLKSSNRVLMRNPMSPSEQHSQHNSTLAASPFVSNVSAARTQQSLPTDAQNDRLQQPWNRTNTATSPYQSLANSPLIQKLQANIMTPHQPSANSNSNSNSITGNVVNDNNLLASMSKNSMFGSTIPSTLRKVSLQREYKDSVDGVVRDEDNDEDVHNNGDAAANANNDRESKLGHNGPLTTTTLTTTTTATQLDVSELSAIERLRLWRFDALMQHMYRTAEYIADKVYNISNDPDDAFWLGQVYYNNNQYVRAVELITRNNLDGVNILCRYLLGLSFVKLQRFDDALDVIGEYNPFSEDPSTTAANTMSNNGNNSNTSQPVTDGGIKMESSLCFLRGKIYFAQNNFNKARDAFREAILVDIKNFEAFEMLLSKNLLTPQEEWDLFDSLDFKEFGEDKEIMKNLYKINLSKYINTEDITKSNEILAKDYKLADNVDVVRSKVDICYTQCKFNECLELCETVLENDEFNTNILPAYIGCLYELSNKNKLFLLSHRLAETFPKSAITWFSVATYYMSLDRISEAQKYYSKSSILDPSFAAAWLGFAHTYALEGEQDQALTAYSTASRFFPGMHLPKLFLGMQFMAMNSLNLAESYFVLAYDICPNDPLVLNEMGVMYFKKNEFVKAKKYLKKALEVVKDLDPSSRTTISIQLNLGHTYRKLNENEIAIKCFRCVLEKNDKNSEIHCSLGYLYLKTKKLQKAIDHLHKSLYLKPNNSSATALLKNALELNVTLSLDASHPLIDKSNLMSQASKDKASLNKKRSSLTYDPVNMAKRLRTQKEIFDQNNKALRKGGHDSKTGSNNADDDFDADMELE

Molecule: non-biotinylated Tiny Yeast Comet 1 (Tyc1) (natural protein)
- inhibition of APC/C^Cdc20 activity in vitro (35S-Pds1 substrate), titration of Tyc1; blocks the binding of co-factor Cdc20 to APC/C [1]: 50 µM

Molecule: non-biotinylated PQ65 (Cdc20 169–232) (from UniProt P26309 169-232) (peptide)
- inhibition of APC/C^Cdc20 activity in vitro (35S-Pds1 substrate), serial dilution of PQ65; blocks the binding of co-factor Cdc20 to APC/C [2]: < 50 µM

Molecule: Bio-Tyc1: biotinylated-Tyc1 (Biotin-MKVLDDWFSRKFSKAVHGNNHGTISLSTLSYIRVHKLVK)
- pull-down of full-length Cdc20 from IVT/T lysate (in words) (Cdc20): Both full-length and lower molecular weight forms of Cdc20 were observed

Molecule: DMNKRILQYMPEPPKCSSLRQKSYIMKKRTHYSYQQ (not fully specified) [non-biotinylated DQ36 (Cdc20 197–232)]
- inhibition of APC/C^Cdc20 activity in vitro (35S-Pds1 substrate), titration of DQ36; blocks the binding of co-factor Cdc20 to APC/C [3]: 150 µM

B1: Cdc20-127 (Y205N): spindle checkpoint by-pass mutant allele of Cdc20, Y205N (protein, UniProt P26309 1-610, looked up, variant Y205N)
APC/C activator protein CDC20: MPESSRDKGNAAISGNRSVLSIASPTKLNILSSDWSRNQGKVSKNSLKRSSSLNIRNSKRPSLQASANSIYSRPKITIGAPPLIRRDSSFFKDEFDAKKDKATFSAYSSRSYPTIGSESVVSQTSLSQPTTSREVDEQFTVAADRYIPILQGASQNKVDPETLHEALPPPNASPISHLRAQTKIVFKQNVAEACGLDMNKRILQNMPEPPKCSSLRQKSYIMKKRTHYSYQQEQKIPDLIKLRKINTNPERILDAPGFQDDFYLNLLSWSKKNVLAIALDTALYLWNATTGDVSLLTDFENTTICSVTWSDDDCHISIGKEDGNTEIWDVETMSLIRTMRSGLGVRIGSLSWLDTLIATGSRSGEIQINDVRIKQHIVSTWAEHTGEVCGLSYKSDGLQLASGGNDNTVMIWDTRTSLPQFSKKTHTAAVKALSWCPYSPNILASGGGQTDKHIHFWNSITGARVGSINTGSQVSSLHWGQSHTSTNGGMMNKEIVATGGNPENAISVYNYETKFKVAEVVHAHEARICCSQLSPDGTTLATVGGDENLKFYKIFDPRCTGRSREDGLMDGMLGLIGKEGCRTNDKENRSKNSSEIHTRRPSSTSQYLIR
- ability of mutant Cdc20 to promote APC/C activity (in words) (APC/C [4]; vs wild type Cdc20, n = 3): consistently displayed a decrease in APC activity
- ability of mutant Cdc20 to promote APC/C activity (in words) (APC/C [4]; vs wild type Cdc20, n = 3, listed as Cdc20-127): displayed decreased APC/C activity
- ability of mutant Cdc20 to promote APC/C activity in the presence of Mad2 (in words) (APC/C [5]): consistently displayed APC activity in the presence of Mad2
- ability of mutant Cdc20 to promote APC/C activity in the presence of Mad2 (in words) (APC/C [5]; listed as Cdc20-127): promote APC/C activity at the same level as control reactions even in the presence of 5.0 μM Mad2
